Test results published in US20040115741A1.

Molecular target: HM1.24 antigen (human) (UniProt Q10589)
Experiment: flow cytometry on KPMM2 cells, control antibody

Sequence of UniProt Q10589 (Q10589 1-161 limits assumed): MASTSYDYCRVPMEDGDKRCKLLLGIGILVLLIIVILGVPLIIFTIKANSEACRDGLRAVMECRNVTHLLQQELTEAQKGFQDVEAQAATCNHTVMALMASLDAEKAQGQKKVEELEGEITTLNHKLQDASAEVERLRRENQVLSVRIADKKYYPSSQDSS

Question: “control antibody human IgG1 (hIgG1), Human IgG1, Kappa (SIGMA Cat. No. I3889)” was tested. Which Geo Mean of fluorescence intensity did it give?
Answer: 17.3
